“And” between values parts separate entries of the source, which are not always exact repeats. Identical values can stand only once.
How the values were obtained:
[1] = target: the molecule itself; assay: cryo-EM structure; cpAaLS(119, C37S, A85C) twisted tubes, helical reconstruction in three classes (0-, 18-, 28-Å gap); 50 mM Tris-HCl pH 8.5, 0.15 M NaCl, 1 mM TCEP
[2] = target: the molecule itself; assay: cryo-EM 2D classification; cpAaLS(119) capsomers without NaCl at pH 8.5; Titan Krios; 3D reconstruction unsuccessful (preferential orientation)
[3] = target: the molecule itself; assay: cryo-EM micrographs; Glacios microscope, micrographs of the assemblies; buffer of these samples not given

B1: cpAaLS(119, C37S, A85C) (enzyme, Aquifex aeolicus)
chain: TLEQAIERAGTKHGNKGWEAALSAIEMANLFKSLRGTGGSGSSMQIYEGKLTAEGLRFGIVASRFNHALVDRLVEGAIDSIVRHGGREEDITLVRVPGSWEIPVAAGELARKEDIDAVIAIGVLIRGCTPHFDYIASEVSKGLANLSLELRKPITFGVITAD
notes: Aquifex aeolicus lumazine synthase (AaLS), from the new N-terminus at residue 120 to the native C-terminus; octapeptide linker connecting the native C- and N-termini; Aquifex aeolicus lumazine synthase (AaLS), from the native N-terminus to the new C-terminus at residue 119, with C37S and A85C; Made from cpAaLS(119) by two rounds of site-directed mutagenesis; source: E. coli BL21-Gold(DE3), …
B1: binds [1].

B2: circularly permuted Aquifex aeolicus lumazine synthase cpAaLS(119) (enzyme)
chain: TLEQAIERAGTKHGNKGWEAALSAIEMANLFKSLRGTGGSGSSMQIYEGKLTAEGLRFGIVASRFNHALVDRLVEGAIDCIVRHGGREEDITLVRVPGSWEIPVAAGELARKEDIDAVIAIGVLIRGATPHFDYIASEVSKGLANLSLELRKPITFGVITAD
notes: Aquifex aeolicus lumazine synthase (AaLS), from the new N-terminus at residue 120 to the native C-terminus; includes the α-helix(120–131); octapeptide linker connecting the native C- and N-termini; Aquifex aeolicus lumazine synthase (AaLS), from the native N-terminus to the new C-terminus at residue 119; source: E. coli BL21-Gold(DE3), purified (heating at 70 °C, anion exchange, SEC)
For B2, the “stoichiometry N” value [2] was 5 and 10.

B3: circularly permuted Aquifex aeolicus lumazine synthase cpAaLS(84) (enzyme)
chain: ATPHFDYIASEVSKGLANLSLELRKPITFGVITADTLEQAIERAGTKHGNKGWEAALSAIEMANLFKSLRGTGGSGSSMQIYEGKLTAEGLRFGIVASRFNHALVDRLVEGAIDCIVRHGGREEDITLVRVPGSWEIPVAAGELARKEDIDAVIAIGVLIRG
notes: Aquifex aeolicus lumazine synthase (AaLS), from the new N-terminus at residue 85 to the native C-terminus; octapeptide linker connecting the native C- and N-termini; Aquifex aeolicus lumazine synthase (AaLS), from the native N-terminus to the new C-terminus at residue 84; source: E. coli BL21-Gold(DE3), purified (heating at 70 °C, anion exchange, SEC)
B3: binds [3].

Source: PMC11912573, “Dynamic Assembly of Pentamer-Based Protein Nanotubes” (ACS Nano, 2025)
